Reference: patent US8242083B2, “Kinase substrates” (PerkinElmer Health Sciences, Inc., priority 2008, dated 2012)

Legend:
Type in all cases: biochemical
DGFR [T790M] = DGFR [T790M] (Homo sapiens, UniProt P00533, T790M); assay: TR-FRET kinase assay, DGFR [T790M]; conditions: Kinase Concentration 0.5 nM; 50 nM ULight-labeled substrate, 200 micromolar ATP, 2 hours
Description: (§1) TR-FRET kinase assays are performed under standardized conditions: various individual kinases are incubated with 50 nM of kinase substrate BRB1 labeled with the TR-FRET acceptor dye ULight (PerkinElmer) and 200 micromolar ATP in 10 μL of kinase assay buffer (50 mM HEPES pH7.5, 10 mM MgCl2, 3 mM MnCl2, 1 mM EGTA, 2 mM DTT and 0.01% Tween-20) for 2 hours at room temperature. Reactions are stopped with EDTA, and anti-phospho-tyrosine antibodies (clone PT66) labeled with the TR-FRET europium chelate donor dye are added to a final concentration of 2 nM in a final volume of 20 μL. The TR-FRET signal emitted at 665 nm is read one hour after the addition of antibodies using a TR-FRET plate reader such as the Envision® Multilabel Plate reader (PerkinElmer). The emitted signal at 665 nm is proportional to the extent of peptide phosphorylation, Control reactions indicative of background are performed excluding ATP from the reaction.
(§2) Assay conditions are identical to those used described for FIG. 1.

CSK = CSK (Homo sapiens, UniProt P41240); assay: TR-FRET kinase assay, CSK; conditions: Kinase Concentration 20 nM; 50 nM ULight-labeled substrate, 200 micromolar ATP, 2 hours
CSK, sequence (P41240 whole entry, species assumed): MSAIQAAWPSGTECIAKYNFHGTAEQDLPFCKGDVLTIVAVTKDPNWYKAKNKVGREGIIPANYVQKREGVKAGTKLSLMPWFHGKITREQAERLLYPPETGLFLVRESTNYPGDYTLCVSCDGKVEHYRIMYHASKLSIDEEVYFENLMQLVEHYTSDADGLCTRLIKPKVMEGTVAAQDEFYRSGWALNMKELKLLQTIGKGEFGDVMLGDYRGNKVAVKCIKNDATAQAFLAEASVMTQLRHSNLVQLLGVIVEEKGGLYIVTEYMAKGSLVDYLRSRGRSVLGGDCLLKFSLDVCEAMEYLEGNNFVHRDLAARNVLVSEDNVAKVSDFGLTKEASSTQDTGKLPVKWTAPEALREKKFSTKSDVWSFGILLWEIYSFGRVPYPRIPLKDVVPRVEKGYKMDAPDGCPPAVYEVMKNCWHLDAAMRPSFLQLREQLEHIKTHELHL
Description: as §1, §2

EphA2 = EphA2 (Homo sapiens, UniProt P29317); assay: TR-FRET kinase assay, EphA2; conditions: Kinase Concentration 0.25 nM; 50 nM ULight-labeled substrate, 200 micromolar ATP, 2 hours
Description: as §1, §2

BRK = BRK (Homo sapiens, UniProt Q13882); assay: TR-FRET kinase assay, BRK; conditions: Kinase Concentration 3 nM; 50 nM ULight-labeled substrate, 200 micromolar ATP, 2 hours
Description: as §1, §2

INSR = INSR (Homo sapiens, UniProt P06213); assay: TR-FRET kinase assay, INSR; conditions: Kinase Concentration 20 nM; 50 nM ULight-labeled substrate, 200 micromolar ATP, 2 hours
Description: as §1, §2

FER = FER (Homo sapiens, UniProt P16591); assay: TR-FRET kinase assay, FER; conditions: Kinase Concentration 0.25 nM; 50 nM ULight-labeled substrate, 200 micromolar ATP, 2 hours
Description: as §1, §2

FLT1 = FLT1 (Homo sapiens, UniProt P17948); assay: TR-FRET kinase assay, FLT1; conditions: Kinase Concentration 0.25 nM; 50 nM ULight-labeled substrate, 200 micromolar ATP, 2 hours
FLT1, sequence (P17948 27-1338, species assumed): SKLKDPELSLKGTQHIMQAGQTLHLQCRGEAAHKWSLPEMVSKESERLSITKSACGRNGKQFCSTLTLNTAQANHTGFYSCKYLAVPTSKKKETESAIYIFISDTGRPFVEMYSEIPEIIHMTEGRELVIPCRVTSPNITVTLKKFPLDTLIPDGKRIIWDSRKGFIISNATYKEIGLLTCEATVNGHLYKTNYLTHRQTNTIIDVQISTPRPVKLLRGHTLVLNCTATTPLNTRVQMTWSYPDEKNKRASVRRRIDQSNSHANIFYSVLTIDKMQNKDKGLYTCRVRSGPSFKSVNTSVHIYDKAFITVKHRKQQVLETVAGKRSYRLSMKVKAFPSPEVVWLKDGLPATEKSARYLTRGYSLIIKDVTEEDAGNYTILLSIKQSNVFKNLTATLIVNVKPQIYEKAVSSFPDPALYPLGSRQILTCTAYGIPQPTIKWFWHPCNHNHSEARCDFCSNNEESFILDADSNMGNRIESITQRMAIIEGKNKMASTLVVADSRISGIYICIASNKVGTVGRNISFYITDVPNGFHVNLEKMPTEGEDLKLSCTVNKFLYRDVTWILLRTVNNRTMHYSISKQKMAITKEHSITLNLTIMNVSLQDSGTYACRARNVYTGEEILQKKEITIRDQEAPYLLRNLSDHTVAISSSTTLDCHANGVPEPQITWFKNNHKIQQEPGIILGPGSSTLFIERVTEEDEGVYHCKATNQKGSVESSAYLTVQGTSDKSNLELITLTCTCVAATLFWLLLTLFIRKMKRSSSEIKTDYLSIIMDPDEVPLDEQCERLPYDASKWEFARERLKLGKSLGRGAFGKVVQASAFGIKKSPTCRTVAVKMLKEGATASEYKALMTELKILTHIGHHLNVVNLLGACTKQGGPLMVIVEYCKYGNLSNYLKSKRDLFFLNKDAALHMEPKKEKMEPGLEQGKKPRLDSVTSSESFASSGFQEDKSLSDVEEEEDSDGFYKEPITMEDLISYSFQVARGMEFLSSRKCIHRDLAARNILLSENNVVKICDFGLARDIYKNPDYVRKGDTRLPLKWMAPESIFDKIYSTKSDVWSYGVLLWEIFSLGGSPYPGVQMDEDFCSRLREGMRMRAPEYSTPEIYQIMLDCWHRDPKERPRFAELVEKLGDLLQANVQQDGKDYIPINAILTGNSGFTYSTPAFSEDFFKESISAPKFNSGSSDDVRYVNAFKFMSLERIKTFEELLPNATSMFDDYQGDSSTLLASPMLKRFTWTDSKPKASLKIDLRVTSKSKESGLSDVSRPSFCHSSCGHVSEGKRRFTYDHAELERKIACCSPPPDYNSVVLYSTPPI
Description: as §1, §2

MET = MET (Homo sapiens, UniProt P08581); assay: TR-FRET kinase assay, MET; conditions: Kinase Concentration 0.5 nM; 50 nM ULight-labeled substrate, 200 micromolar ATP, 2 hours
MET, sequence (P08581 25-1390): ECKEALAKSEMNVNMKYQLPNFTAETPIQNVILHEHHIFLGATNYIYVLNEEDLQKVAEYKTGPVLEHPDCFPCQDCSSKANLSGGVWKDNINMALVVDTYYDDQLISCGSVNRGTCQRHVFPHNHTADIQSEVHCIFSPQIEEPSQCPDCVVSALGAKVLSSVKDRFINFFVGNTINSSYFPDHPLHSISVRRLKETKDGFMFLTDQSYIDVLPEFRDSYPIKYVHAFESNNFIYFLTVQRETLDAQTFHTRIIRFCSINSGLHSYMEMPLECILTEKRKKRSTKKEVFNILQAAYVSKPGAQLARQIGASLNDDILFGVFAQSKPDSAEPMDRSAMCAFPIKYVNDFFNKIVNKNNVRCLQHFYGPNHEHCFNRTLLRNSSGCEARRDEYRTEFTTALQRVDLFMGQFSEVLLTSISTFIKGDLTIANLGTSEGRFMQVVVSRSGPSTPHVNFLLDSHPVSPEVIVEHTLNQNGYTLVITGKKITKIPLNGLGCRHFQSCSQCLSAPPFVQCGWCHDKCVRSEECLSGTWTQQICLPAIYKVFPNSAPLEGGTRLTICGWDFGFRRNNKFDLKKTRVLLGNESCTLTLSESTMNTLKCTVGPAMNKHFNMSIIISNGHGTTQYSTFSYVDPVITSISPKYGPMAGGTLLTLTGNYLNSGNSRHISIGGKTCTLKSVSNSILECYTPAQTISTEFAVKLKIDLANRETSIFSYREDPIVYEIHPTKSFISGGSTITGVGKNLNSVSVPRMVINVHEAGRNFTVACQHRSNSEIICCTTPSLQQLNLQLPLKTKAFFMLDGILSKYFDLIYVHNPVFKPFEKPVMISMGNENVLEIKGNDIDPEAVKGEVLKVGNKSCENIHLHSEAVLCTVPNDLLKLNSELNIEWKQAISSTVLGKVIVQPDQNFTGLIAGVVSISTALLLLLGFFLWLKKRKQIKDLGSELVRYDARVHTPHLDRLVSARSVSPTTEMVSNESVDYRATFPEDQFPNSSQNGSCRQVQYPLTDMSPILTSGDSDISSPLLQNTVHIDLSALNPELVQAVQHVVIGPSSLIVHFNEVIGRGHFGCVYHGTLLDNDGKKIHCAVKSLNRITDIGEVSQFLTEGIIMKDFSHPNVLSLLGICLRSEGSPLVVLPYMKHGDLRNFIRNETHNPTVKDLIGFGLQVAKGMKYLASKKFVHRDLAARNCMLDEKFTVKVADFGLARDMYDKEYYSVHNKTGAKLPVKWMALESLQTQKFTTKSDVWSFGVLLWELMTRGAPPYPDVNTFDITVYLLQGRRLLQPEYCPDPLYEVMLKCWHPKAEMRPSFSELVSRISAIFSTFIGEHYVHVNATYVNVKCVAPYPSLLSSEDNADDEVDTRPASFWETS
Description: as §1, §2

FLT3 = FLT3 (Homo sapiens, UniProt P36888); assay: TR-FRET kinase assay, FLT3; conditions: Kinase Concentration 0.1 nM; 50 nM ULight-labeled substrate, 200 micromolar ATP, 2 hours
Description: as §1, §2

MUSK = molecular target: T1, MUSK (Homo sapiens, UniProt O15146); assay: TR-FRET kinase assay, MUSK; conditions: Kinase Concentration 1 nM; 50 nM ULight-labeled substrate, 200 micromolar ATP, 2 hours
T1 sequence (O15146 24-869): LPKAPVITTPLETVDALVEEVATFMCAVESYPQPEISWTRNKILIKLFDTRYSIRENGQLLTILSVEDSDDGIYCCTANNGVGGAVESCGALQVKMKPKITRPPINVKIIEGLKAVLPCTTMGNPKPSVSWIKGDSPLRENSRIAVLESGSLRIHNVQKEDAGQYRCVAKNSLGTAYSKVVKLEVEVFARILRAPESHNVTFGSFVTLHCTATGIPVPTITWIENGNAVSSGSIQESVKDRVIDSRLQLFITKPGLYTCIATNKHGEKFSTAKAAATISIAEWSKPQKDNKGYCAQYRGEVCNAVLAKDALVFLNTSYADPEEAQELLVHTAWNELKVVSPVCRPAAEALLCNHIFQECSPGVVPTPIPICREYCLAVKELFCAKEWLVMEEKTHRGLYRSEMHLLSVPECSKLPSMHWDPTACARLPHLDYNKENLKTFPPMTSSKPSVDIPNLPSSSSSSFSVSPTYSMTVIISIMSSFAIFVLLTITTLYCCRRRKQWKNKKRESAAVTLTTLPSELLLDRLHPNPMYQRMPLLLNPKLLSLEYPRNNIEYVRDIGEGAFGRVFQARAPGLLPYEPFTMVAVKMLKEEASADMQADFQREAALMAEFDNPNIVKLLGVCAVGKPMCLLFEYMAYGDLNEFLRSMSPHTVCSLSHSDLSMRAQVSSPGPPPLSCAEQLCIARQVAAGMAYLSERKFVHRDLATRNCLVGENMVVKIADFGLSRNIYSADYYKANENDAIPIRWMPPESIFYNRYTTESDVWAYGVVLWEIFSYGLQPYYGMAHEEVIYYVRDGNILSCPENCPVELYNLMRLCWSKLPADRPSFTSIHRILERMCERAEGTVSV
Description: as §1, §2

KIT = KIT (Homo sapiens, UniProt P10721); assay: TR-FRET kinase assay, KIT; conditions: Kinase Concentration 2 nM; 50 nM ULight-labeled substrate, 200 micromolar ATP, 2 hours
Description: as §1, §2

TIE2 = TIE2 (Homo sapiens, UniProt Q02763); assay: TR-FRET kinase assay, TIE2; conditions: Kinase Concentration 0.5 nM; 50 nM ULight-labeled substrate, 200 micromolar ATP, 2 hours
TIE2, sequence (Q02763 23-1124, species assumed): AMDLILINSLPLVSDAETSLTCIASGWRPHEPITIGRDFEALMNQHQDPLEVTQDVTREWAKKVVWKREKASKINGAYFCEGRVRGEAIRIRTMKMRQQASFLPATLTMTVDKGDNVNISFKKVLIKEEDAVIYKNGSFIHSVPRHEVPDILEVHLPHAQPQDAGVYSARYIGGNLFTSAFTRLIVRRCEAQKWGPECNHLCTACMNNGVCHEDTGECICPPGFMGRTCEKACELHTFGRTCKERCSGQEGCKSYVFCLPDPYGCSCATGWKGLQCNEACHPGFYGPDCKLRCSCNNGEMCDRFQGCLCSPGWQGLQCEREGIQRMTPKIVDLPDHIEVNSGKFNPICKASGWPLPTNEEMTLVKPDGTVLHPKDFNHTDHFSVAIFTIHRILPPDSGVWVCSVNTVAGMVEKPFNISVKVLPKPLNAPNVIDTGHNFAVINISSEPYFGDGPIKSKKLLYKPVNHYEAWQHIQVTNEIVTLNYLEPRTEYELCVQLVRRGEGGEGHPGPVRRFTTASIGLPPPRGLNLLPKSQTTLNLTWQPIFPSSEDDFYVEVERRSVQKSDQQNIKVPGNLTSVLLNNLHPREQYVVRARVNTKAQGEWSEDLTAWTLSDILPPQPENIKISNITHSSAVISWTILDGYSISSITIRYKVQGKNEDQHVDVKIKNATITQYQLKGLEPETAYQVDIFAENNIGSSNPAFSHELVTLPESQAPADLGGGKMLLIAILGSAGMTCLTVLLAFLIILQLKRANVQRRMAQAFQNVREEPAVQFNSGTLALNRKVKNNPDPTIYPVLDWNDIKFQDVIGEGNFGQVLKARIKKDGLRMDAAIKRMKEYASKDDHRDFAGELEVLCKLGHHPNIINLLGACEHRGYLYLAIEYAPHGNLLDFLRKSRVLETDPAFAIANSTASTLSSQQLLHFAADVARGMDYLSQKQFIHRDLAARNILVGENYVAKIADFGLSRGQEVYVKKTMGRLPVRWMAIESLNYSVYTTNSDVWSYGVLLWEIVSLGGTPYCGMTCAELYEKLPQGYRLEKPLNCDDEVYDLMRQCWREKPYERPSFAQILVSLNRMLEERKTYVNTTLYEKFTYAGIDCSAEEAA
Description: as §1, §2

FES = FES (Homo sapiens, UniProt P07332); assay: TR-FRET kinase assay, FES; conditions: Kinase Concentration 1 nM; 50 nM ULight-labeled substrate, 200 micromolar ATP, 2 hours
FES, sequence (P07332 whole entry, species assumed): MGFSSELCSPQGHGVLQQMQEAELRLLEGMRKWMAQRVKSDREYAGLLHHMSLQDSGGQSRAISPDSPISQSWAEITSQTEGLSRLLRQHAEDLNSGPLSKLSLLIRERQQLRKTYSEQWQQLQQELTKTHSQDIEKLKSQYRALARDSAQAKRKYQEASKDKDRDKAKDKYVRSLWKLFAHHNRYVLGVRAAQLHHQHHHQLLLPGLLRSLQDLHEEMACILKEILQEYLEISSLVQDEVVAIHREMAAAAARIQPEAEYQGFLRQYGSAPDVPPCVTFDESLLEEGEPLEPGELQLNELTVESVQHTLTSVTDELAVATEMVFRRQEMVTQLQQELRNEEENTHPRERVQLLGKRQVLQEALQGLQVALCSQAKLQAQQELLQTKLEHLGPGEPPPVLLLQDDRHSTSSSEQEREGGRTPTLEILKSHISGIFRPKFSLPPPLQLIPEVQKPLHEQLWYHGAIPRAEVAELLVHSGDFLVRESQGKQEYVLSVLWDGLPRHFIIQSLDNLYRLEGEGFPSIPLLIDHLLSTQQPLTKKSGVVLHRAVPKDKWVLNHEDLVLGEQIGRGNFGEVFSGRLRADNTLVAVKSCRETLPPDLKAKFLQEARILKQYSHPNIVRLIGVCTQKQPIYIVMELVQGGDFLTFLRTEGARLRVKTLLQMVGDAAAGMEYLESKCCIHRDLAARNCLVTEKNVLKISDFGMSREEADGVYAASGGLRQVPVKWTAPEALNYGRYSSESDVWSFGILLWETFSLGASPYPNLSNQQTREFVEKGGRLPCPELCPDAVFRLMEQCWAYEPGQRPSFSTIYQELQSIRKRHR
Description: as §1, §2

LYNb = LYNb (Homo sapiens, UniProt P07948); assay: TR-FRET kinase assay, LYNb; conditions: Kinase Concentration 1 nM; 50 nM ULight-labeled substrate, 200 micromolar ATP, 2 hours
Description: as §1, §2

ITK = molecular target: T2, ITK (Homo sapiens, UniProt Q08881); assay: TR-FRET kinase assay, ITK; conditions: Kinase Concentration 0.5 nM; 50 nM ULight-labeled substrate, 200 micromolar ATP, 2 hours
T2 sequence (Q08881 1-620): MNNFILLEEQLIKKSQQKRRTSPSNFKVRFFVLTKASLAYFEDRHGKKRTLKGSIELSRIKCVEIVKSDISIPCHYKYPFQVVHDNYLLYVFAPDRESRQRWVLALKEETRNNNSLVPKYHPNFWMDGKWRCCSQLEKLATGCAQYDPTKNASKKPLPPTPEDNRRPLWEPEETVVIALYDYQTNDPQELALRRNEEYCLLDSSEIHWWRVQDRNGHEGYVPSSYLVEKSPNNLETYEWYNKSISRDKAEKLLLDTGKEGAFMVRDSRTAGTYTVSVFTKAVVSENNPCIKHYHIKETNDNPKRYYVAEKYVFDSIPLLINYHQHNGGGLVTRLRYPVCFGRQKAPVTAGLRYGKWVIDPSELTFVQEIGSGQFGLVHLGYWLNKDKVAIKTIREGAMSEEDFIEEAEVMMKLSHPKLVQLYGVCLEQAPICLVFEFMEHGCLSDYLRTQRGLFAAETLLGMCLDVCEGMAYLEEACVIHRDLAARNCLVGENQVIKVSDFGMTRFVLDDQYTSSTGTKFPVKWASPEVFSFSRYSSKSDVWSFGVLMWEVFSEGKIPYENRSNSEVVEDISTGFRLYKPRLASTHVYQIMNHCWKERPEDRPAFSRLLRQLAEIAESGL
Description: as §1, §2

Sequence: C AYE AYE AYE K EYA EYA EYA K AYA EYE R (CAYEAYEAYEKEYAEYAEYAKAYAEYER; tyrosine kinase substrate peptide) [BRB1]
- Signal to Noise ratio with BRB1 Peptide (DGFR [T790M]): 3.3
- Signal to Noise ratio with BRB1 Peptide (CSK): 27.2
- Signal to Noise ratio with BRB1 Peptide (EphA2): 26.9
- Signal to Noise ratio with BRB1 Peptide (BRK): 2.4
- Signal to Noise ratio with BRB1 Peptide (INSR): 4.0
- Signal to Noise ratio with BRB1 Peptide (FER): 31.0
- Signal to Noise ratio with BRB1 Peptide (FLT1): 4.1
- Signal to Noise ratio with BRB1 Peptide (MET): 24.2
- Signal to Noise ratio with BRB1 Peptide (FLT3): 25.9
- Signal to Noise ratio with BRB1 Peptide (MUSK): 3.1
- Signal to Noise ratio with BRB1 Peptide (KIT): 1.5
- Signal to Noise ratio with BRB1 Peptide (TIE2): 17.7
- Signal to Noise ratio with BRB1 Peptide (FES): 24.9
- Signal to Noise ratio with BRB1 Peptide (LYNb): 33.1
- Signal to Noise ratio with BRB1 Peptide (ITK): 8.4
